Measurements reported in US7083786.

T1: human complement factor C4, P0C0L4
T1 chain: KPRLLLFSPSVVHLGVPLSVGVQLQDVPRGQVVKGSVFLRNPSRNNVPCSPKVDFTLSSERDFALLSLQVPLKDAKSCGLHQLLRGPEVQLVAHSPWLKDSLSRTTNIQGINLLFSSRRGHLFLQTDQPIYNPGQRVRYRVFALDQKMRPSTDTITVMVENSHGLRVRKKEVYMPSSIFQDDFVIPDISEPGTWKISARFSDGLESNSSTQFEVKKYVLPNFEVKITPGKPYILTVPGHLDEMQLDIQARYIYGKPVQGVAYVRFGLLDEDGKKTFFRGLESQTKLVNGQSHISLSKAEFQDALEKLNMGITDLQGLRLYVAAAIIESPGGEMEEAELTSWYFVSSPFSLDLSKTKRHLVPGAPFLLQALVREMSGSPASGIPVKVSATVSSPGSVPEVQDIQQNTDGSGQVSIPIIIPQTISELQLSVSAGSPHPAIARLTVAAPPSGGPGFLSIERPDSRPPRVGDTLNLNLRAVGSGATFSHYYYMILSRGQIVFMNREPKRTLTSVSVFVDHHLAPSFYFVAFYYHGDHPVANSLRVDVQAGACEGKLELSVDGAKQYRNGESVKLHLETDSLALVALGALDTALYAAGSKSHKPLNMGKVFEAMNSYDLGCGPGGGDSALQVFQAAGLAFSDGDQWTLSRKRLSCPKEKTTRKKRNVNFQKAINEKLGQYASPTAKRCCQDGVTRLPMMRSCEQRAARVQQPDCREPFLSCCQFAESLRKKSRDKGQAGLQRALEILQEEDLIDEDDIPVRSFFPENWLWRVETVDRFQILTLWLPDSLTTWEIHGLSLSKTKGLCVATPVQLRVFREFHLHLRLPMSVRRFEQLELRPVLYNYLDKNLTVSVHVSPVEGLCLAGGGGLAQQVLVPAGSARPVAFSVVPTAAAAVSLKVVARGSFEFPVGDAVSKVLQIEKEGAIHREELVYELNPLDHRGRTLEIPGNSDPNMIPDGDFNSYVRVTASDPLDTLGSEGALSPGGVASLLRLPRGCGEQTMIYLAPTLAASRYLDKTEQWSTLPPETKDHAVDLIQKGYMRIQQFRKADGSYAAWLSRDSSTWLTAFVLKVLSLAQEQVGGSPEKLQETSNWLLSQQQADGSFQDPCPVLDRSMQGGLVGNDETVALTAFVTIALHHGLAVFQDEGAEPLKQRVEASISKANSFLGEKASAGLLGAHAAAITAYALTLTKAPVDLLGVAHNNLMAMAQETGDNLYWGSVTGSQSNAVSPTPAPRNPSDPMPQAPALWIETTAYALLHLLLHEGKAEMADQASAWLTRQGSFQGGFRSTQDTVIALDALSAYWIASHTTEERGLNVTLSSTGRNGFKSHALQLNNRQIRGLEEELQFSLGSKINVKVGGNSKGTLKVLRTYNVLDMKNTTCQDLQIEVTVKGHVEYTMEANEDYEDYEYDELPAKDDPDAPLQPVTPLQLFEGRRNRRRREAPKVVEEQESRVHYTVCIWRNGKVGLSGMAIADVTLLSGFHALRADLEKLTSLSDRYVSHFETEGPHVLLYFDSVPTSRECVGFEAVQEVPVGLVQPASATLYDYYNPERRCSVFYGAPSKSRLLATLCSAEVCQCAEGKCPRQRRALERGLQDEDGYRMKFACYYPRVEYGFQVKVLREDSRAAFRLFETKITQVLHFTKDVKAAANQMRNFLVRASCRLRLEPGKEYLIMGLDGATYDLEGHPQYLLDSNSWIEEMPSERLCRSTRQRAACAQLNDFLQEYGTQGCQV

B1: mannan-binding lectin associated serine protease-2 (MASP-2), 76 kDa protein from human plasma (protein)
chain: TPLGPKWPEPVFGRLASPGFPGEYANDQERRWTLTAPPGYRLRLYFTHFDLELSHLCEYDFVKLSSGAKVLATLCGQESTDTERAPGKDTFYSLGSSLDITFRSDYSNEKPFTGFEAFYAAEDIDECQVAPGEAPTCDHHCHNHLGGFYCSCRAGYVLHRNKRTCSALCSGQVFTQRSGELSSPEYPRPYPKLSSCTYSISLEEGFSVILDFVESFDVETHPETLCPYDFLKIQTDREEHGPFCGKTLPHRIETKSNTVTITFVTDESGDHTGWKIHYTSTAQPCPYPMAPPNGHVSPVQAKYILKDSFSIFCETGYELLQGHLPLKSFTAVCQKDGSWDRPMPACSIVDCGPPDDLPSGRVEYITGPGVTTYKAVIQYSCEETFYTMKVNDGKYVCEADGFWTSSKGEKSLPVCEPVCGLSARTTGGRIYGGQKAKPGDFPWQVLILGGTTAAGALLYDNWVLTAAHAVYEQKHDASALDIRMGTLKRLSPHYTQAWSEAVFIHEGYTHDAGFDNDIALIKLNNKVVINSNITPICLPRKEAESFMRTDDIGTASGWGLTQRGFLARNLMYVDIPIVDHQKCTAAYEKPPYPRGSVTANMLCAGLESGGKDSCRGDSGGALVFLDSETERWFVGGIVSWGSMNCGEAGQYGVYTKVINYIPWIENIISDF
B2: MASP-1 (MBP-associated serine protease) from human plasma (protein)
chain: HTVELNNMFGQIQSPGYPDSYPSDSEVTWNITVPDGFRIKLYFMHFNLESSYLCEYDYVKVETEDQVLATFCGRETTDTEQTPGQEVVLSPGSFMSITFRSDFSNEERFTGFDAHYMAVDVDECKEREDEELSCDHYCHNYIGGYYCSCRFGYILHTDNRTCRVECSDNLFTQRTGVITSPDFPNPYPKSSECLYTIELEEGFMVNLQFEDIFDIEDHPEVPCPYDYIKIKVGPKVLGPFCGEKAPEPISTQSHSVLILFHSDNSGENRGWRLSYRAAGNEPELQPPVHGKIEPSQAKYFFKDQVLVSCDTGYKVLKDNVEMDTFQIECLKDGTWSNKIPTCKIVDCRAPGELEHGLITFSTRNNLTTYKSEIKYSCQEPYYKMLNNNTGIYTCSAQGVWMNKVLGRSLPTCLPVCGLPKFSRKLMARIFNGRPAQKGTTPWIAMLSHLNGQPFCGGSLLGSSWIVTAAHCLHQSLDPKDPTLRDSDLLSPSDFKIILGKHWRLRSDENEQHLGVKHTTLHPKYDPNTFENDVALVELLESPVLNAFVMPICLPEGPQQEGAMVIVSGWGKQFLQRFPETLMEIEIPIVDHSTCQKAYAPLKKKVTRDMICAGEKEGGKDACSGDSGGPMVTLNRERGQWYLVGTVSWGDDCGKKDRYGVYSYIHHNKDWIQRVTGVRN
B3: C1s from human serum C1 (protein)
chain: EPTMYGEILSPNYPQAYPSEVEKSWDIEVPEGYGIHLYFTHLDIELSENCAYDSVQIISGDTEEGRLCGQRSSNNPHSPIVEEFQVPYNKLQVIFKSDFSNEERFTGFAAYYVATDINECTDFVDVPCSHFCNNFIGGYFCSCPPEYFLHDDMKNCGVNCSGDVFTALIGEIASPNYPKPYPENSRCEYQIRLEKGFQVVVTLRREDFDVEAADSAGNCLDSLVFVAGDRQFGPYCGHGFPGPLNIETKSNALDIIFQTDLTGQKKGWKLRYHGDPMPCPKEDTPNSVWEPAKAKYVFRDVVQITCLDGFEVVEGRVGATSFYSTCQSNGKWSNSKLKCQPVDCGIPESIENGKVEDPESTLFGSVIRYTCEEPYYYMENGGGGEYHCAGNGSWVNEVLGPELPKCVPVCGVPREPFEEKQRIIGGSDADIKNFPWQVFFDNPWAGGALINEYWVLTAAHVVEGNREPTMYVGSTSVQTSRLAKSKMLTPEHVFIHPGWKLLEVPEGRTNFDNDIALVRLKDPVKMGPTVSPICLPGTSSDYNLMDGDLGLISGWGRTEKRDRAVRLKAARLPVAPLRKCKEVKVEKPTADAEAYVFTPNMICAGGEKGMDSCKGDSGGAFAVQDPNDKTKFYAAGLVSWGPQCGTYGLYTRVKNYVDWIMKTMQENSTPRED
B4: C1r from human serum C1 (protein)
chain: SIPIPQKLFGEVTSPLFPKPYPNNFETTTVITVPTGYRVKLVFQQFDLEPSEGCFYDYVKISADKKSLGRFCGQLGSPLGNPPGKKEFMSQGNKMLLTFHTDFSNEENGTIMFYKGFLAYYQAVDLDECASRSKSGEEDPQPQCQHLCHNYVGGYFCSCRPGYELQEDRHSCQAECSSELYTEASGYISSLEYPRSYPPDLRCNYSIRVERGLTLHLKFLEPFDIDDHQQVHCPYDQLQIYANGKNIGEFCGKQRPPDLDTSSNAVDLLFFTDESGDSRGWKLRYTTEIIKCPQPKTLDEFTIIQNLQPQYQFRDYFIATCKQGYQLIEGNQVLHSFTAVCQDDGTWHRAMPRCKIKDCGQPRNLPNGDFRYTTTMGVNTYKARIQYYCHEPYYKMQTRAGSRESEQGVYTCTAQGIWKNEQKGEKIPRCLPVCGKPVNPVEQRQRIIGGQKAKMGNFPWQVFTNIHGRGGGALLGDRWILTAAHTLYPKEHEAQSNASLDVFLGHTNVEELMKLGNHPIRRVSVHPDYRQDESYNFEGDIALLELENSVTLGPNLLPICLPDNDTFYDLGLMGYVSGFGVMEEKIAHDLRFVRLPVANPQACENWLRGKNRMDVFSQNMFCAGHPSLKQDACQGDSGGVFAVRDPNTDRWVATGIVSWGIGCSRGYGFYTKVLNYVDWIKKEMEEED

Target: T1, human complement factor C4, P0C0L4

Protein | C4 deposition on a Western blot incubated with human serum (C4 activation)
B1 | C4 was deposited at a position corresponding to the MASP-2 band
B2 | no C4 deposition was observed at positions corresponding to MASP-1
B3 | C4 deposition, which could be inhibited by enzyme inhibitors, was observed at a position corresponding to C1r and C1s, which are not separated by the technique employed
B4 | C4 deposition, which could be inhibited by enzyme inhibitors, was observed at a position corresponding to C1r and C1s, which are not separated by the technique employed
